The target in the experiment is NADH-dependent [FeFe]-hydrogenase Hyd1ABC (purified recombinant heterotrimer) (Syntrophomonas wolfei).

B1: Clostridial ferredoxin (Clostridium pasteurianum) (natural protein)
chain: MAYKIADSCVSCGACASECPVNAISQGDSIFVIDADTCIDCGNCANVCPVGAPVQE
Take B1: the hydrogenase activity, Fdred → H2 (hydrogen production from reduced ferredoxin without NADH), 37°C, pH 7.5 was below 0.01 U · mg^−1 and the hydrogenase activity, H2 → Fdox (reduction of oxidized ferredoxin with hydrogen as the electron donor), 37°C, pH 7.5 was below 0.01 U · mg^−1.

(Values after article PMC5626996.)
